± gives the uncertainty stated by the source.

This data set can be described thus: amyloid nucleation score (Sup35N fusion, yeast selection) (log enrichment); library NNK3; higher = more nucleation; inactive = no reads after selection. The essentials:
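Yeast lacking psi expressed peptides of 20 random codons fused to Sup35N, received 100 μM copper sulfate for 24 hours, and were then grown for 7 days at 30°C on medium lacking adenine and uracil. Illumina sequencing of input and output plasmid inserts provided the reads. Nucleation scores are DiMSum log enrichments of output over input, centred on the mode of non-aggregating sequences. Any sequence with under 100 input reads was excluded.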
With LVFKLAEMCADPIKQRCCGL, the amyloid nucleation score result is “inactive”.

LVFKYSKAVSTYWYEGDQVT: the amyloid nucleation score entry is “inactive”. The entry for LVFSRACTLVDTIE is “inactive”; for LVFTWYFMCNVMGIFDRGTR it is 2.06 ± 0.094; for LVIACTGYVSLCR it is “inactive”. For LVICGYDIRN, the amyloid nucleation score result was “inactive”. In the case of LVINL it was “inactive”; in that of LVLLHVLGERSSAPRRTVMR, “inactive”; in that of LVLMSEGFM, “inactive”. In the case of LVLPVSFRVCFREVIIHMKY it was “inactive”; in that of LVLRGKRSDV, “inactive”; in that of LVMINCCHVFRKARSTAERQ, 2.44 ± 0.071. The figure for LVNCISIVLFPECNKSLLHR is 2.35 ± 0.077; for LVNELAQVVVCLGSRSTVLG it is “inactive”; for LVNGVHLREWVTPRVECGSF it is “inactive”.

Consider LVSHSTMLPVSFFAHYRGEV, for which the amyloid nucleation score result was “inactive”. Regarding LVSTEKWEYLGQCARRELRF, the amyloid nucleation score was -0.884 ± 2.4.

Consider LVTIYW, for which the amyloid nucleation score entry was “inactive”.

As to LVTPSSTALFWSNFLWSELP, the amyloid nucleation score result is “inactive”. The entry for LVVCYGNWMRLVGIFINGNS is “inactive”. In the case of LVVTYWEMRLVPADAK it was “inactive”. In the case of LVVVECSSLMRADLCSTQVM it was “inactive”; in that of LVYAKNMLFDNKDWCV, “inactive”; in that of LVYPQIYVQV, “inactive”. For LWFMDFMQSSNSEYQPIVGL, the amyloid nucleation score result was “inactive”. As for LWHGIICFCFLAYSWGKSAV, the amyloid nucleation score result is “inactive”. The figure for LWQGNMM is -1.07 ± 1.9; for LWRKMVVPYFYP it is “inactive”; for LWRTGRALWAMNWKAYIQFK it is “inactive”.

On to LWSIRYFKIS, for which the amyloid nucleation score result is “inactive”. The entry for LWSLYFDFVQGFGMYLSQSL is “inactive”. The entry for LWSSDVEFLYGCASSCDFMG is “inactive”; for LWSYITK it is “inactive”. In the case of LYCPGYSMKSSVL it was “inactive”; in that of LYFNVSTTIAIRIRSYSYRV, -0.299 ± 0.62.

Regarding LYFSNRTIKEYIVN, the amyloid nucleation score entry was “inactive”. The figure for LYFYNIESLAMIFNMNENLV is 2.31 ± 0.058; for LYIGQGSMIFFYSVVGFSAC it is 2.36 ± 0.087; for LYIIKSR it is -0.51 ± 1.7. The entry for LYINYLCWMNKYTACLPLHL is “inactive”. In the case of LYLQVALRTWLLSRWDLDDI it was “inactive”; in that of LYNYAVSISTLIH, 0.971 ± 0.2; in that of LYRLPRGYIRGGLLMLSS, “inactive”. Take LYSCMFIMLFQNYFLPIGVA: the amyloid nucleation score result was “inactive”. With LYSLFVMFLSVKVWFIVFM, the amyloid nucleation score result was “inactive”. The entry for LYVDCGLRIWRNMSAIVGCV is “inactive”. In the case of LYVFLLNECSWRAPGASI it was “inactive”; in that of LYVTILNVLLLHMTHSLFSG, “inactive”; in that of MACGGIKTIDTWNGDKFNVQ, “inactive”. The entry for MAFRETRWNFLLNKV is “inactive”. On to MCDGFVVVNLILFWKVEMI, for which the amyloid nucleation score entry is “inactive”.

MCEGLEFLNTK: the amyloid nucleation score result was “inactive”. The entry for MCLSILE is “inactive”; for MCNMCR it is “inactive”. The entry for MCQNLRMYMIYHRQGKWMKS is “inactive”; for MCVYITYLNLWSDNSLRDRT it is 2.23 ± 0.061. In the case of MCYQNMR it was “inactive”; in that of MDMLMLMGMALLIDSNVQAK, “inactive”; in that of MDNLCGVVFCGSWSVVYSAR, 3.35 ± 0.06. With MDRRNGNRN, the amyloid nucleation score result is “inactive”. MDVARRMFLISYIFIIFVVR: the amyloid nucleation score entry was “inactive”. For MELNLNKSSAYYKSVHFSVT, the amyloid nucleation score was -0.053 ± 0.3. The figure for MERVRGRRMGVIVAFDVDGW is 1.11 ± 0.19; for MESRGALYLSFRGRNCSSTQ it is 0.371 ± 0.19. As to MEVLLVIYSDCERARSDTNI, the amyloid nucleation score result was “inactive”. In the case of MEWFFVSYPLITGWMGS it was “inactive”. The entry for MFLSALDNGLLVNGYVICVC is “inactive”; for MFMMTKRNCNSTCCHYKFRV it is 0.656 ± 0.16. The entry for MFNILADKGSRARSERASL is “inactive”. On to MFQGHMSWII, for which the amyloid nucleation score entry is “inactive”.

MFQPFYFHNFYISCKLA displayed an amyloid nucleation score of 1.95 ± 0.092. In the case of MFRVSWFLISGLLRSVAWNG it was “inactive”. In the case of MFSYSNSHFSLRLMWRGLRF it was “inactive”.

As to MFWEGVTNSEMATKLHDKCI, the amyloid nucleation score entry was “inactive”. The entry for MGKKSAHLSYRICVQCGKDG is “inactive”; for MGLGGHIVLSGCSWFMYHIG it is “inactive”. On to MGTRFVLGPVQNLCDIGSAW, for which the amyloid nucleation score entry was “inactive”. Consider MHNKVGPYTD, for which the amyloid nucleation score entry was “inactive”. The figure for MHWCN is 0.228 ± 0.82; for MIGVSRLCNRRIF it is “inactive”. In the case of MIPCLHEFLYLNSWDNKVGL it was “inactive”.

In the case of MIRRKRNAYMR, the amyloid nucleation score entry is “inactive”. MIRTFKNSYISNGHCMVRRH: the amyloid nucleation score result was “inactive”. The entry for MIRVSHNRNASDQLRFASSL is “inactive”; for MKAYILMVDRLVVELVPHVA it is -0.107 ± 0.35. The entry for MKCCFSTLIPAKYNLDTLIL is “inactive”. Consider MKEDSSYHWRLPHVTSTFVG, for which the amyloid nucleation score result is “inactive”. The entry for MKGCWFWKVIENFHIKSHCR is “inactive”; for MKIGETYDLTSINPAAWNVR it is “inactive”. The entry for MKLHTPIEMLEGTHIGHVCG is “inactive”; for MKLVDLGVEIRLRRLAVSSV it is “inactive”. The entry for MKVEVYPSTVFMRYRVNWVI is “inactive”; for MKYRTALHTF it is -0.961 ± 1.9. Regarding MLCFKPKPVRARNPGNILSH, the amyloid nucleation score result is “inactive”. The entry for MLDCYWPFPNISIRIWTEWV is “inactive”. In the case of MLDRCD it was “inactive”. In the case of MLDYVF it was “inactive”.
